± gives the uncertainty stated by the source.
Assay: protein stability index of a GFP-peptide fusion (yeast GPS) (PSI 1-4); higher = more stable; sorted into four equal gates, so the index is relative within each strain
Summary of the method: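 Sequencing reads from sorted gates were used to score each peptide. The library consisted of tiled 17-residue yeast protein peptides fused downstream of GFP on a Cherry-expressing plasmid, pooled and carried in yeast. Mid-log cultures in leucine-free medium were split into four equal gates by GFP/Cherry ratio, and each gate's plasmids were PCR-amplified and Illumina-sequenced. The protein stability index adds up, over all gates, the read frequency multiplied by the gate number.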

Sequence | protein stability index (doa10∆) | protein stability index (pdr5∆) | protein stability index (san1∆) | protein stability index (ubr1∆)
KFEPLYPREEEEDYNEF [PRP8] | 3.35 ± 0.15 | 3.31 ± 0.13 | 3.12 ± 0.072 | 3.37 ± 0.096
AEVQSLFQDGSASLHTR [RRP4] | 2.57 ± 0.13 | 2.78 ± 0.16 | 2.85 ± 0.1 | 
RKLINYTKKHLSSHSST [RPN4] | 1.34 ± 0.063 | 1.71 ± 0.049 | 1.41 ± 0.088 | 1.28 ± 0.04
FGPHVDVNDVLTKYIRS [GRR1] | 3.3 ± 0.056 | 3.2 ± 0.061 | 3.41 ± 0.046 | 3.29 ± 0.04
TKFSKLIGRPPLLVPGM [FAS1] | 1.16 ± 0.071 | 2 ± 0.064 | 1.91 ± 0.078 | 1.65 ± 0.041
IRSSRSRGIVIGSGAMS [RPP1] | 2.63 ± 0.085 | 2.77 ± 0.09 | 2.63 ± 0.091 | 2.46 ± 0.073
NFRTMQQQQMQQQQQQQ [SSN2] |  | 3.15 ± 0.23 | 2.37 ± 0.12 | 
DGKKHSVFYTILRDYGP [RPO31] | 2.86 ± 0.072 | 2.95 ± 0.067 | 3.19 ± 0.054 | 2.87 ± 0.06
IARLYSCISISDIISML [RRI2] | 1.37 ± 0.061 | 1.35 ± 0.05 | 1.24 ± 0.093 | 1.17 ± 0.029
ITSFGFGQKGGQAIVVH [FAS2] | 1.28 ± 0.074 | 1.44 ± 0.036 | 1.52 ± 0.088 | 1.69 ± 0.046
IQAVFCLTKFQDEEQTE [YCG1] | 2.23 ± 0.057 | 2.24 ± 0.062 | 2.64 ± 0.057 | 2.82 ± 0.06
SAASKKKKNKNKGKKKR [SRP21] | 3.22 ± 0.081 | 3.04 ± 0.1 | 3.11 ± 0.056 | 3.22 ± 0.056
PSTRSNFILEVFGTIIP [YJL039C/NUP192] | 1.35 ± 0.085 | 1.41 ± 0.071 | 1.28 ± 0.23 | 1.35 ± 0.072
QELKADSPFSLICQNNL [SRP72] | 2.53 ± 0.078 | 2.56 ± 0.064 | 2.66 ± 0.054 | 2.85 ± 0.049
MVLRNVMEYDVKFYEIF [SRB8] | 1.88 ± 0.081 | 2 ± 0.099 | 1.62 ± 0.099 | 2.1 ± 0.067
QRTCLMTVTFLILAGQV [YCS4] | 1.19 ± 0.052 | 1.36 ± 0.05 | 1.27 ± 0.099 | 1.43 ± 0.043
PPPPQQSQPIANQSATS [SNF5] | 2.96 ± 0.057 | 3.15 ± 0.049 | 2.92 ± 0.043 | 3.05 ± 0.041
CLKRGWGHPTRMLLNLC [BRR2] |  | 3.14 ± 0.14 | 3.23 ± 0.079 | 
QYVTQIEQEKQEQQEQD [PRE6] | 2.23 ± 0.064 | 1.93 ± 0.057 | 2.85 ± 0.058 | 1.9 ± 0.045
SPMINSTSSGKVSYAVK [SNM1] | 2.6 ± 0.11 | 3.11 ± 0.065 | 2.32 ± 0.097 | 2.93 ± 0.056
AMSETLSKVSLLTPDIG [PRE8] | 3.08 ± 0.11 | 3.19 ± 0.12 | 3.04 ± 0.13 | 3.35 ± 0.23
KFPATNVTTILDEIFSG [ECM29] | 2.54 ± 0.078 | 2.93 ± 0.066 | 2.28 ± 0.06 | 2.7 ± 0.063
KPSRTSRQVQKRPRSRT [RPS7A] | 3.08 ± 0.092 | 2.44 ± 0.085 | 2.68 ± 0.061 | 1.95 ± 0.14
AMVEKYAPDVVRSLENL [RRP42] | 2.59 ± 0.13 | 2.81 ± 0.067 | 2.65 ± 0.052 | 3.14 ± 0.038
HHSWSQSDLEIITQYVF [ARP9] | 2.29 ± 0.051 | 2.82 ± 0.056 | 2.73 ± 0.056 | 3.08 ± 0.044
TVSPDFVAATTNAGYTI [FAS1] | 2.71 ± 0.065 | 2.71 ± 0.053 | 2.32 ± 0.12 | 2.56 ± 0.058
KQLEKRDYQRINKNSKI [POP4] | 2.06 ± 0.067 | 2.4 ± 0.068 | 2.02 ± 0.11 | 2.69 ± 0.11
